No end group written: not given here.
T1: PACAP-R3 (human, UniProt P41587 24-438)
T1 sequence (looked up): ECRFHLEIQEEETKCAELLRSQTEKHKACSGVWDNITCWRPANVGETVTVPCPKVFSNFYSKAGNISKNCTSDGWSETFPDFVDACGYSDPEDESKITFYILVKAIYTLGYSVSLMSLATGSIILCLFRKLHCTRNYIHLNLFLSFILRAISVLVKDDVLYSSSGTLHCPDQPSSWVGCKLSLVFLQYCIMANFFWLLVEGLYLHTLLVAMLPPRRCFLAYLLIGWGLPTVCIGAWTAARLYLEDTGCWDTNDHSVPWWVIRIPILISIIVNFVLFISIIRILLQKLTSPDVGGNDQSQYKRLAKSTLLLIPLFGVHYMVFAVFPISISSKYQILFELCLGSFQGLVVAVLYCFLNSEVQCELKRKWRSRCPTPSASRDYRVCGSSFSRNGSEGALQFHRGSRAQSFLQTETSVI


target: T1, PACAP-R3; experiment: cell-based or functional assay

| R3 EC50 | R3 Selectivity | Binder |
| --- | --- | --- |
| 1 nM | 40 | HSDAVFTDNYTRLRKQMAAKKYLNSITNKR [R3P130] |
| 0.5 nM | 30 | HSDAVFTDNYTRLRKQMAAKKYLNSIENKR [R3P119] |
| 0.2 nM | 100 | HSDAVFTDNYTRLRKQMAAKKYLNSIKNIR [R3P141] |
| 1 nM | 200 | HSDAVFTDNYTRLRKQMAAKKYLNSIPNKR [R3P126] |
| 0.3 nM | – | HSDAVFTDNYTRLRKQMAVKKYLNSIKNKR [R3P113] |
| 3 nM | 300 | HSDAVFTDNYTRLRKQMASKKYLNSIKNKR [R3P111] |
| 1 nM | 100 | HSDAVFTDNYTRLRKQMAAKKYLNSIKNKE [R3P156] |
| 3 nM | 100 | HSDAVFTDNYTRLRKQMAAKKYLNSIKNNR [R3P144] |
| 0.2 nM | 50 | HSDAVFTDNYTRLRKQMAAKKYLNSIFNKR [R3P120] |
| 0.4 nM | 50 | HSDAVFTDNYTRLRKQMAAKKYLNSIKNGR [R3P139] |
| 0.3 nM | 200 | HSDAVFTDNYTRLRKQMAAKKYLNSIRNKR [R3P128] |
| 0.3 nM | 100 | HSDAVFTDNYTRLRKQMAAKKYLNSIKNQR [R3P146] |
| 0.5 nM | 30 | HSDAVFTDNYTRLRKQMAAKKYLNSIDNKR [R3P118] |
| 200 nM | – | HSDAVFTDNYTRLRKQMANKKYLNSIKNKR [R3P107] |
| 0.3 nM | 3 | HSDAVFTDNYTRLRKQMALKKYLNSIKNKR [R3P105] |
| 0.5 nM | 600 | HSDAVFTDNYTRLRKQMAAKKYLNSIQNKR [R3P127] |
| 0.2 nM | 500 | HSDAVFTDNYTRLRKQMAAKKYLNSIKNRR [R3P147] |
| 0.5 nM | > 200 | HSDAVFTDNYTRLRKQLAAKKYLNDIKKGGT [R3P12] |
| 17 nM | 3 | HSDAVFTDNYTRLRKQMAVKKYLNDLKKGGT [R3P14] |
| 1 nM | 400 | HSDAVFTDNYTRLRKQMAGKKYLNSIKNKR [R3P101] |
| 1 nM | 50 | HSDAVFTDNYTRLRKQMAAKKYLNSIGNKR [R3P121] |
| 0.05 nM | 8 | HSDAVFTDNYTRLRKQMAIKKYLNSIKNKR [R3P103] |
| 10 nM | 100 | HSDAVFTDNYTRLRKQMAQKKYLNSIKNKR [R3P109] |
| 0.3 nM | 100 | HSDAVFTDNYTRLRKQMAAKKYLNSIKNSR [R3P148] |
| 0.3 nM | 50 | HSDAVFTDNYTRLRKQMAAKKYLNSIKNHR [R3P140] |
| 1 nM | 50 | HSDAVFTDNYTRLRKQMAAKKYLNSISNKR [R3P129] |

| R3 EC50 | R3 Selectivity | Binder |
| --- | --- | --- |
| 0.4 nM | – | HSDAVFTDNYTRLRKQMAAKKYLNSIKNAR [R3P134] |
| 2 nM | 10 | HSDAVFTDNYTRLRKQMAWKKYLNSIKNKR [R3P114] |
| 0.3 nM | 70 | HSDAVFTDNYTRLRKQMAAKKYLNSIVNKR [R3P131] |
| 0.5 nM | 200 | HSDAVFTDNYTRLRKQMARKKYLNSIKNKR [R3P110] |
| 11 nM | 0.3 | HSDAVFTENYTKLRKQLAAKKYLNDLLNGGT [R3P10] |
| 3 nM | 3 | HSDAVFTDNYTKLRKQLAAKKYLNDILNGGT [R3P11] |
| 0.2 nM | – | HSDAVFTDNYTRLRKQMAAKKYLNSIMNKR [R3P124] |
| 0.2 nM | 500 | HSDAVFTDNYTRLRKQMAKKKYLNSIKNKR [R3P104] |
| 0.4 nM | 100 | HSDAVFTDNYTRLRKQMAAKKYLNSIKNKD [R3P155] |
| 0.3 nM | 70 | HSDAVFTDNYTRLRKQMAAKKYLNSIKNDR [R3P136] |
| 1 nM | 20 | HSDAVFTDNYTRLRKQMAAKKYLNSIANKR [R3P116] |
| 0.5 nM | 80 | HSDAVFTDNYTRLRKQMAAKKYLNSIKNTR [R3P149] |
| 6 nM | 50 | HSDAVFTDNYTRLRKQMAYKKYLNSIKNKR [R3P115] |
| 2 nM | 30 | HSDAVFTDNYTRLRKQMAAKKYLNSINNKR [R3P125] |
| 0.2 nM | 30 | HSDAVFTDNYTRLRKQMAAKKYLNSIKNMR [R3P143] |
| 0.5 nM | 100 | HSDAVFTDNYTRLRKQMAAKKYLNSIKNPR [R3P145] |
| 0.2 nM | 200 | HSDAVFTDNYTRLRKQMAAKKYLNSIKNKA [R3P153] |
| 0.2 nM | 30 | HSDAVFTDNYTRLRKQMAAKKYLNSIKNLR [R3P142] |
| 300 nM | 3 | HSDAVFTDNYTRLRKQMAPKKYLNSIKNKR [R3P108] |
| 5 nM | 33 | HSDAVFTDNYTRLRKQLAAKKYLNDIKK-NH2 [R3P13] |
| 0.8 nM | 50 | HSDAVFTDNYTRLRKQMAAKKYLNSIKNVR [R3P150] |
| 60 nM | 5 | HSDAVFTDNYTRLRKQMAHKKYLNSIKNKR [R3P102] |
| 0.3 nM | 100 | HSDAVFTDNYTRLRKQMAAKKYLNSIKNER [R3P137] |
| 0.2 nM | 50 | HSDAVFTDNYTRLRKQMAAKKYLNSIHNKR [R3P122] |
| 0.2 nM | 50 | HSDAVFTDNYTRLRKQMAAKKYLNSIWNKR [R3P132] |

From patent publication US6972319B1, “Pituitary adenylate cyclase activating peptide (PACAP)receptor 3 (R3) agonists and their pharmacological methods of use” (priority 1999, dated 2005)
